Tests used:
human BAFF [1] = biological target: human BAFF (UniProt Q9Y275); experiment: competitive SPR; elute 1
TRX-APRIL (mouse) [2] = biological target: TRX-APRIL (mouse) (UniProt Q9D777); experiment: competitive SPR; elute 1
human BAFF [3] = biological target: human BAFF (UniProt Q9Y275); experiment: competitive SPR; elute 2
TRX-APRIL (mouse) [4] = biological target: TRX-APRIL (mouse) (UniProt Q9D777); experiment: competitive SPR; elute 2
human BAFF [5] = biological target: human BAFF (UniProt Q9Y275); experiment: competitive SPR; elute 2; interaction observed, curve not fitted adequately
human BAFF [6] = biological target: human BAFF (UniProt Q9Y275); experiment: competitive SPR; elute 1; interaction observed, curve not fitted adequately

human BAFF, sequence (Q9Y275 82-285): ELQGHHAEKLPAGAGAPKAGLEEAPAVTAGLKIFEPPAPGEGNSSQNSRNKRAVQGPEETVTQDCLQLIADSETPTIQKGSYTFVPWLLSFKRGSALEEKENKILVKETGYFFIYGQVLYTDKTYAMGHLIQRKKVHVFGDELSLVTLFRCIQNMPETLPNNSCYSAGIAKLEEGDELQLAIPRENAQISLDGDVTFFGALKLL
TRX-APRIL (mouse), sequence (Q9D777 104-241): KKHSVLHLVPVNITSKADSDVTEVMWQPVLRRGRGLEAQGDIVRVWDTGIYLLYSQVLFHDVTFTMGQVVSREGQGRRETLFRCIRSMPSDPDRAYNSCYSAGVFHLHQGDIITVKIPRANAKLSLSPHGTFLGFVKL
TACI_d1 (first CRD of TACI, residues 32-67), sequence (O14836 32-67): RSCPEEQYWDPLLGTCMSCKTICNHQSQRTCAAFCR

Substance | IC50 (human BAFF [1]) | IC50 (TRX-APRIL (mouse) [2]) | IC50 (human BAFF [3]) | IC50 (TRX-APRIL (mouse) [4]) | IC50 (human BAFF [5]) | IC50 (human BAFF [6])
hTACI CRD1 LS (human TACI CRD1 R32-R67 with NHQSQRT replaced by GQHPKQ of CRD2) | 6 nM | 12 nM | 23 nM | 129 nM | – | –
TACI_d1 (first CRD of TACI, residues 32-67) | – | 3000 nM | – | 1000 nM | > 100 nM | > 100 nM
